The record followed here is paper PMC10632791.

The target in one series is T1, DegU (Bacillus velezensis DMW1) (UniProt A3KLC2).
T1 sequence: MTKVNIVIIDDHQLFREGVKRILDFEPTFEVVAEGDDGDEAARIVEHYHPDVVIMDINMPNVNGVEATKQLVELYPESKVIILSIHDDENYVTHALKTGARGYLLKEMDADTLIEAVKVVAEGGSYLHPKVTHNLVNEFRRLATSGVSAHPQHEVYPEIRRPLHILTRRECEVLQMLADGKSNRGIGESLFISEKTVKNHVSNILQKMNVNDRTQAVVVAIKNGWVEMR
In words: EMSA. The note with it: MST: 50 mM Tris pH 7.5, 150 mM NaCl, 10 mM MgCl2, 0.05% Tween 20, 25 C.
As for “AGTGCTCTATGTAAAATAGAGTGCTTTTTTTGCGGTTTAATGAAATCATATTGCGAACATTCGGACCGTCTGTTTCGGTTCTTGCGCTGTTTTTTCCGGGTCAGCTTACGTACGTAAATTTTTTTCATTCTGCCATAACTGGATATTTGACAGATTTTCATTATAGTTTAAAGATTTTTAATTTTACGTAAATAATATTTTTGAAAATAAATTGCGGGATGCCGCAAAATACCCTCTGGATTCGTCGGATTTTTTTTCGGTGTGCCGCATGAAACTTTTCACCCATTTTTCG (double strand) [P01 (srfA promoter -328 to -36)]”, the binding entry is given as “no binding”. On to “ATGTGTGCGCCTCCCCTTTTTAAGATAAAGTTGTCAATTCTCCCTTAGAAACAGCCTCCCTCTATGTCCCTAACTCATTCTCAAGCCAAAAGAACCACTTACCTCCAAAAACGATCCCGATTCAATCACCGCCGAAATCCGTCATCCGTTCACCCGCGCAGTCCGAAATGCGGCATCAAATTTATGAGAAATCAAGACAAAAAGCCATTGATTGTAAGCACGAAAGGTTTACCTATTTCTGCATGTATTTCTATATATCTACTTACGTTCACTTTATATGAAAATATTGTTTTTATCAC (double strand) [P02 (srfA promoter -35 to +263)]”, for which the binding result is “binds”.

The subject of a further series is DegU (Bacillus velezensis DMW1). In words: MST. The note with it: MST: 50 mM Tris pH 7.5, 150 mM NaCl, 10 mM MgCl2, 0.05% Tween 20, 25 C.
Turning to pbae, the Kd was found to be 110 nM.

With pdfn, the Kd was found to be 140 nM. This Kd and that of the substance before are within 1.5-fold of each other. In the case of pfen, the Kd turned out to be 1170 nM. Turning to pitu, the Kd stood at 30 nM. As for pmln, the Kd was 130 nM. Take psrfA: the Kd came to 670 nM.

For orientation: Kd means the concentration at which binding is half-saturated. Lower therefore signals tighter binding.
